Measurements: paper PMC5668312, “Structural basis of katanin p60:p80 complex formation” (Scientific Reports, 2017)

Molecular target: T1, katanin p80 C-terminal domain (p80-CTD, aa 481-658 of mouse p80), 6xHis-tagged (mouse, UniProt Q8BG40 481-658)
T1 construct: katanin p80 subunit, mouse, C-terminal domain, residues 481-658; also called 6xHis-p80CTD; source: E. coli BL21(DE3), pET28a, co-expressed with p60-MIT, purified (IMAC, SEC); not shown: 6xHis, N-terminal, kept
Assay: AUC; sedimentation velocity of the co-purified p60-MIT:p80-CTD complex, 300 nM to 50 μM, 20 °C, 42,000 rpm, 20 mM HEPES pH 7.4, 150 mM NaCl, 2 mM 2-mercaptoethanol; apparent Kd estimated
Conditions: both partners purified

T1 sequence (Q8BG40 481-658): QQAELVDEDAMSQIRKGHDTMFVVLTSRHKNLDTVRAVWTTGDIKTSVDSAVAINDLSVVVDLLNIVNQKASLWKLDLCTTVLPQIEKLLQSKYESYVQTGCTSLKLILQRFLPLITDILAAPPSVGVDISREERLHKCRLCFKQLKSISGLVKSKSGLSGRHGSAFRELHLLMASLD

stoichiometry N: 1
B1: katanin p60 MIT domain (p60-MIT, aa 1-78 of mouse p60), wild type (domain or fragment, UniProt Q9WV86 1-78, looked up)
chain: MSLQMIVENVKLAREYALLGNYDSAMVYYQGVLDQMNKYLYSVKDTHLRQKWQQVWQEINVEAKQVKDIMKTLESFKL
notes: katanin p60 subunit, mouse, N-terminal MIT domain, residues 1-78; Co-purified with m2 as the p60-MIT:6xHis-p80CTD complex; source: E. coli BL21(DE3), pET28a, co-expressed with 6xHis-p80-CTD, purified (IMAC, SEC)
